From patent US20190282616A1, “MACROPHAGES REDIRECT PHAGOCYTOSIS BY NON-PROFESSIONAL PHAGOCYTES AND INFLUENCE INFLAMMATION” (University of Virginia Patent Foundation, priority 2016, published 2019)

B1: IL-13: cytokine; recombinant mouse IL-13 (eBiosciences) (protein, UniProt P20109 19-131, looked up)
Interleukin-13: APGPVPRSVSLPLTLKELIEELSNITQDQTPLCNGSMVWSVDLAAGGFCVALDSLTNISNCNAIYRTQRILHGLCNRKAPTTVSSLPDTKIEVAHFITKLLSYTKQLFRHGPF
B2: IL-5: cytokine; recombinant mouse IL-5 (eBiosciences) (protein, UniProt P04401 21-133, looked up)
Interleukin-5: MEIPMSTVVKETLTQLSAHRALLTSNETMRLPVPTHKNHQLCIGEIFQGLDILKNQTVRGGTVEMLFQNLSLIKKYIDRQKEKCGEERRRTRQFLDYLQEFLGVMSTEWAMEG
B3: PDGF-BB: growth factor of the tested panel of soluble mediators (protein, UniProt P01127 82-190, looked up)
Platelet-derived growth …: SLGSLTIAEPAMIAECKTRTEVFEISRRLIDRTNANFLVWPPCVEVQRCSGCCNNRNVQCRPTQVQLRPVQVRKIEIVRKKPIFKKATVTLEDHLACKCETVAAARPVT
modifications: homodimer
notes: growth factor of the tested panel of soluble mediators

Tests used:
IGF-1 in BAL fluid = experiment: In vivo cytokine administration: IGF-1 in BAL fluid; settings: 1 μg recombinant mouse cytokine intranasally for two consecutive days
Experimental: Mice were administered intranasally with 1 μg of recombinant mouse IL-4, IL-5, or IL-13 (eBiosciences), 1×10^6 apoptotic Jurkat cells, or PBS as control, for two consecutive days. On the third day, BAL fluid was recovered and centrifuged; the supernatant was stored at −80° C. for subsequent cytokine analysis. IL-4, IL-5, IL-6, and CCL-11/Eotaxin-1 in the BAL fluid of mice that were sensitized with HDM (regimen #1) were quantified by a multiplex Luminex performed by the University of Virginia Flow Cytometry Core Facility. Secretion of IGF-1 from J774 cells, peritoneal macrophages, and BAL fluids, as well as TSLP from BAL fluids, were measured by ELISA (R&D Systems).

LR73 cells = experiment: In vitro engulfment assay: apoptotic thymocyte uptake by LR73 cells; format: cell-based, hamster; settings: soluble mediator alone; IGF-I at concentrations reported in serum (100-600 ng/mL); other factors over a range of concentrations
Experimental: LR73, SVEC-40, BEAS-2B, and 16HBE14o-cells were seeded in a 24 well plate. Thymocytes were isolated from 4-6 week old mice and induced to undergo apoptosis with dexamethasone. Thymocytes or prepared microvesicles were then stained with either CypHer5E (GE Healthcare, PA15401) or TAMRA (Invitrogen, C-1171). LR73 and SVEC-40 cells were incubated with apoptotic thymocytes at a 1:10 phagocyte to target ratio, BEAS-2B at a 1:5 phagocyte to target ratio, and 16HBE14o—at a 1:20 phagocyte to target ratio for 2 hours. Mouse IGF-I (Sigma-Aldrich), human IGF-I (Sigma-Aldrich), human IGF-II (Sigma-Aldrich) were added to the phagocytes at the same time as addition of apoptotic targets. For IGFBP3 studies, IGFBP3 (Sigma-Aldrich) was added to media or supernatant from J774 cells for one hour to allow IGFBP3 to bind to any available IGF-I, then the mix is added to phagocytes along with apoptotic targets. […] Targets were then washed off three times with PBS, and the cells were dissociated from the plate with trypsin and the engulfment assessed by flow cytometry.

[1] = system: IGF-1R, Akt and Erk1/2 phosphorylation in LR73 cells; experiment: Immunoblotting of signaling in LR73 cells; format: cell-based, hamster; settings: serum-starved LR73 cells, 100 ng/mL growth factor
Experimental: LR73, J774, or BEAS-2B cells were seeded in a 60 mm dish at a concentration of 5×10^5. […] Cells were lysed in RIPA buffer and used in Western blots. The blots were probed for phospho-Erk1/2 (Cell Signaling Technology, #4370), phospho-Akt (Cell Signaling Technology, #4060), phospho-IGF-1R (Cell Signaling, #3024), total Erk2 (Santa Cruz Biotechnology, #sc-154-G), total Akt (Cell Signaling Technology, #4691), total IGF-1R (Cell Signaling, #9750), and anti-B-actin-HRP (Sigma-Aldrich, #A3854) followed by chemiluminescence detection.

Row | Molecule | IGF-1 in bronchoalveolar lavage (BAL) fluid (IGF-1 in BAL fluid) | apoptotic cell uptake (engulfment) by LR73 cells (LR73 cells) | early downstream signaling events (Erk1/2 phosphorylation) [1]
1 | B1 | induced IGF-1 production |  | 
2 | B2 | but not IL-5, induced IGF-1 production |  | 
3 | B3 |  | did not alter engulfment | elicited early downstream signaling events
